Measurements from PMC9474881.

Molecular target: PsgIBP_L, larger (28 kDa) ice-binding protein isoform from Psychromyces glacialis (Psychromyces glacialis)
Experiment: SEC; analytical Superose12 column, 20 mM Tris-HCl pH 8.0 + 500 mM NaCl, 0.8 ml/min, 4 °C; 0.5 mL of 1 mg/ml protein loaded; molecular weight from a calibration line with five reference proteins

In the case of “PsgIBP_L, larger (28 kDa) ice-binding protein isoform from Psychromyces glacialis (natural protein)”, the stoichiometry N is reported as 2.
